Values joined by “and” are separate entries in the source; they are usually repeats but may differ in a detail not shown here. Equal entries are not always repeated. Where no end group is shown, it is not given here.

One assay deals with human GLP-1 receptor (human, UniProt P43220 24-463). The assay is described as follows: cell-based or functional assay.
Conditions: not given
As to HVEGTFTSDVSSYLEGQAAKEFIAWLKVGRG-OH [Val^8-Lys^33-Val^34-GLP-1 (7-37) OH], the “GLP-1 receptor activation relative to Val^8-GLP-1 (7-37) OH” value is 0.2 relative to Val^8-GLP-1 (7-37) OH.
For HVEGTFTSDVSSYLEEKAAKEFIAWLVKGRG-OH [Val^8-Glu^22-Lys^23-GLP-1 (7-37) OH], the “GLP-1 receptor activation relative to Val^8-GLP-1 (7-37) OH” value is 3.1 relative to Val^8-GLP-1 (7-37) OH.
On the same count and under the same terms, then HVEGTFTSDVSSYLEGQAAKEFIAWLVKGGP-NH2 [Val^8-Gly^36-Pro^37-GLP-1 (7-37) NH2], with 1.2 relative to Val^8-GLP-1 (7-37) OH; and HVEGTFTSDVSSYLEGQAAKEFIAWLVGKRG-OH [Val^8-Gly^34-Lys^35-GLP-1 (7-37) OH], with 0.7 relative to Val^8-GLP-1 (7-37) OH.
With HVEGTFTSDVSSYLEGQAAKEFIAWLKNGRG-OH [Val^8-Lys^33-Asn^34-GLP-1 (7-37) OH], the “GLP-1 receptor activation relative to Val^8-GLP-1 (7-37) OH” value was 0.2 relative to Val^8-GLP-1 (7-37) OH.
Still for that read-out and setting: as for HVEGTFTSDVSSYLEGQAAKEFIAWLVKERG-OH [Val^8-Glu^35-GLP-1 (7-37) OH], the figure is 0.3 relative to Val^8-GLP-1 (7-37) OH; as for HVEGTFTSDVSSYLEKEAAKEFIAWLVKGRG-OH [Val^8-Lys^22-Glu^23-GLP-1 (7-37) OH], 0.8 relative to Val^8-GLP-1 (7-37) OH; as for HVEGTFTSDVSSYLEGQAAKEFIAWLVKGHG-OH [Val^8-His^36-GLP-1 (7-37) OH], 0.5 relative to Val^8-GLP-1 (7-37) OH.
The same measure, in the same setting: then HVEGTFTSDVSSYLEKQAAKEFIEWLVKGRG-OH [Val^8-Lys^22-Glu^30-GLP-1 (7-37) OH], with 0.8 relative to Val^8-GLP-1 (7-37) OH.
Same read-out and setting: as for HVEGTFTSDLSSYLEGQAAEEFIAWLVKGRG-OH [Val^8-Leu^16-Glu^26-GLP-1 (7-37) OH], the figure is 0.5 relative to Val^8-GLP-1 (7-37) OH; as for HVEGTFTSDVSSYLEGQAAKEFIAWLVKGEG-OH [Val^8-Glu^36-GLP-1 (7-37) OH], 0.2 relative to Val^8-GLP-1 (7-37) OH.

The target in the next assay is T1, human GLP-1 receptor (Homo sapiens, UniProt P43220).
T1 construct: expressed in transfected cells; host or cells: HEK-293 Aurora CRE-BLAM cells
T1 sequence (P43220 24-463): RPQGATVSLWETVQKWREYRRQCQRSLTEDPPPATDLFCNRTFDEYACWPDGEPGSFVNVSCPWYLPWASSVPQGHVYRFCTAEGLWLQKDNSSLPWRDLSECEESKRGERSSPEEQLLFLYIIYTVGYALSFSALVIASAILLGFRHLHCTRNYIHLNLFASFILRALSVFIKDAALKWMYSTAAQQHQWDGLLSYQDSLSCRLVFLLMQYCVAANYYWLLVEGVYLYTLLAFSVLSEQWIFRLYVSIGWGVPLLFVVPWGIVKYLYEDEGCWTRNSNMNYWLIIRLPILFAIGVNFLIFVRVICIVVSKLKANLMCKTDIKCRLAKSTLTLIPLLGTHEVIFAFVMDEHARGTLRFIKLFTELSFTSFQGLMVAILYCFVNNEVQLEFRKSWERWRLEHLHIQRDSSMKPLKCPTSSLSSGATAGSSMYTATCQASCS
Nature of the assay: In vitro potency assay (GLP-1 receptor signaling, CRE-BLAM reporter). Type of assay: cell-based. As to conditions: HEK-293 Aurora CRE-BLAM cells expressing the human GLP-1 receptor; EC50-based potency relative to Val^8-GLP-1 (7-37)OH (=1.0); several values in a cell are repeat determinations. The source says:
The extent of the induction of cAMP levels can then be measured using a cAMP response element which drives the expression of a reporter gene such as luciferase or beta lactamase.
These HEK-293 cells have stably integrated a DNA vector having a cAMP response element (CRE) driving expression of the β-lactamase (BLAM) gene. […] The assay is further described in Zlokarnik, et al. (1998) Science 279:84-88 (See also Example 3).
The day after seeding, the medium is replaced with plasma free medium.
Consider “Val^8-Glu^22-Ile^33-GLP-1 (7-37) OH (HVEGTFTSDVSSYLEEQAAKEFIAWLIKGRG)”, for which the “GLP-1 receptor activation relative to Val^8-GLP-1 (7-37) OH” value was 4.7 and 3.8 and 3.4.
With “Val^8-Glu^22-Val^25-GLP-1 (7-37) OH (HVEGTFTSDVSSYLEEQAVKEFIAWLVKGRG)”, the “GLP-1 receptor activation relative to Val^8-GLP-1 (7-37) OH” value was 4.7 and 2.9.
“Val^8-Glu^22-Val^25-Ile^33-GLP-1 (7-37) OH (HVEGTFTSDVSSYLEEQAVKEFIAWLIKGRG)”: the “GLP-1 receptor activation relative to Val^8-GLP-1 (7-37) OH” value was 4.9 and 5.8 and 6.7.
On the same count and under the same terms, as for “Val^8-Glu^30-GLP-1 (7-37) OH (HVEGTFTSDVSSYLEGQAAKEFIEWLVKGRG)”, the figure is 0.6 and 0.7; as for “Val^8-His^37-GLP-1 (7-37) OH (HVEGTFTSDVSSYLEGQAAKEFIAWLVKGRH)”, 0.7 and 1.2; as for Val^8-Lys^33-Asn^34-GLP-1 (7-37) OH, 0.2.
“Val^8-Trp^16-Glu^22-GLP-1 (7-37) OH (HVEGTFTSDWSSYLEEQAAKEFIAWLVKGRG)”: the “GLP-1 receptor activation relative to Val^8-GLP-1 (7-37) OH” value was 4.9 and 4.6.
The same measure, in the same setting: as for “Val^8-Tyr^12-GLP-1 (7-37) OH (HVEGTYTSDVSSYLEGQAAKEFIAWLVKGRG)”, the figure is 1.7 and 1.8; as for “Val^8-Tyr^16-GLP-1 (7-37) OH (HVEGTFTSDYSSYLEGQAAKEFIAWLVKGRG)”, 2.6 and 2.5.
For the molecule “Val^8-Tyr^16-Glu^22-GLP-1 (7-37) OH (HVEGTFTSDYSSYLEEQAAKEFIAWLVKGRG)”, the “GLP-1 receptor activation relative to Val^8-GLP-1 (7-37) OH” value is 3.6 and 3.8.
“Val^8-Tyr^18-Glu^22-GLP-1 (7-37) OH (HVEGTFTSDVSYYLEEQAAKEFIAWLVKGRG)”: the “GLP-1 receptor activation relative to Val^8-GLP-1 (7-37) OH” value is 5.1 and 5.9.

The assay is the same for the next values; noted with them: in vitro potency relative to Val^8-GLP-1 (7-37)OH.
On to Exendin-4 [reference compound], for which the “potency higher than Val^8-GLP-1 (7-37)OH” value is on record as “approximately 5 fold”.
The same measure, in the same setting: then “Val^8-Glu^22-GLP-1 (7-37) OH (HVEGTFTSDVSSYLEEQAAKEFIAWLVKGRG)”, with “approximately 3 fold”.

For the origin of these results see patent US20040235726A1, “Glucagon-like peptides (glp-1) and treatment of respiratory distress” (priority 2001, published 2004).
